This is an account of results in paper PMC4545359.

This series addresses T1, CRP-His6 (cAMP receptor protein) (Vibrio cholerae C6706) (UniProt O34015).
T1 sequence: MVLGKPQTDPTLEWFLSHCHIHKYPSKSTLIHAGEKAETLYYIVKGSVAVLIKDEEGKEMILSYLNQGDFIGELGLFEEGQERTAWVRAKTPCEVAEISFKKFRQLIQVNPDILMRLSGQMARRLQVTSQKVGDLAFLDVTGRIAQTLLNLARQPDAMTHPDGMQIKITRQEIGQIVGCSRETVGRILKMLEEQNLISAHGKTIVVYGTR
Description: EMSA. As to conditions: 10 mM Tris pH 7.5, 1 mM EDTA, 100 mM KCl, 0.1 mM DTT, 5% glycerol, 0.01 mg/ml BSA; CRP 11 ng/ul, promoter DNA 2.5 ng/ul, 75 ng NS DNA; 1 h at room temperature ….

For the sequence “CAGTGGATTAGCGTATGGACACGGCTACGTTTCCGCAGTGGAAAACGGTGTCGCCGAAGGACGTGTCACCTTGTGTAAATTTGCCGCTAACGGCACTGGAAAAAAAAACACTCACTGTGGCGCGATTCAATAC (double strand) [non-specific control 133 bp fragment (NS)]”, the binding result is “no binding”.
